Measured values from PMC6834639, “Molecular basis for chirality-regulated Aβ self-assembly and receptor recognition revealed by ion mobility-mass spectrometry” (Nature Communications, 2019).
Blank lines part the entries; values can stand above or below the binder they belong to. Square brackets hold non-standard residues; d marks the D form. Ends that are not written are not given here.

Legend:
[1] = target: tetrameric transthyretin (TTR) (UniProt P02766 21-147); test: SPR; OpenSPR (Nicoya), TTR immobilised on a COOH chip by amine coupling; Aβ peptides injected (Aβ C-terminals 2.4-48 µM; Aβ (1–40/42) 0.2-20 µM); PBS pH 6.8 with 0.005% Tween 20; 150 s association, 400 s dissociation; 1:1 interaction model; conditions: both partners purified
[2] = target: T1, human serum albumin (HSA) (human, UniProt P02768 25-609); test: native MS; native IM-MS with CIU of HSA-Aβ (1–10) complexes, charge states 15+ to 18+; conditions: both partners purified
T1 construct: serum albumin, human; source: bought: Sigma-Aldrich

[3] = target: the molecule itself; test: native MS; IM-MS of YGGFL aggregates; mass spectrum, concentration dependence and growth curve
[4] = target: T2, bovine serum albumin (BSA) (bovine, UniProt P02769 25-607); test: native MS; native IM-MS with collision-induced unfolding (CIU); 100 mM NH4OAc; Aβ (1–16) 15 µM, Cu2+ 20 µM, BSA/HSA 7.5 µM; 37 °C incubation; conditions: both partners purified
T2 construct: serum albumin, bovine; source: bought: Sigma-Aldrich

[5] = target: T1, human serum albumin (HSA); test: as above; conditions: both partners purified
[6] = target: the molecule itself; test: native MS; IM-MS of oligomers of one Aβ fragment alone; Aβ (1–10) and Aβ (1–16) 600 µM, 10 mM NH4OAc; oligomers of many sizes seen, a printed size is the largest one

T2 sequence (P02769 25-607): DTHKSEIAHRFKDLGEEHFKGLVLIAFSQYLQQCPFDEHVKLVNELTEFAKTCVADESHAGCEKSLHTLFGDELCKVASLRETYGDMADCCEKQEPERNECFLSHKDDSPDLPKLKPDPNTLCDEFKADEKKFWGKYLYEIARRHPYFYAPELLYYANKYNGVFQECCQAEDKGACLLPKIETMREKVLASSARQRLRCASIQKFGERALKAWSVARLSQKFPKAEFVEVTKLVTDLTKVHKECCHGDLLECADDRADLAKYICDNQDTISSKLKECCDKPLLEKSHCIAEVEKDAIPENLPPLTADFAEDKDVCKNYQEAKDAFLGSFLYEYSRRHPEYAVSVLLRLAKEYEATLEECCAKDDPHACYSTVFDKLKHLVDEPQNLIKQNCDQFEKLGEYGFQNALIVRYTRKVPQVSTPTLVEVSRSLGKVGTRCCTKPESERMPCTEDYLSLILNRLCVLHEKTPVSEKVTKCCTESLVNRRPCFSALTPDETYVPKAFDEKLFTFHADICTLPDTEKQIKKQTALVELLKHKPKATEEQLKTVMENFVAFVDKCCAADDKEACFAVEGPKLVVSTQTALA

B1: WT Aβ (17–36) (peptide)
peptide: LVFFAEDVGSNKGAIIGLMV
notes: amyloid beta residues 17-36, all L; also called Aβ C-terminal fragment; source: bought: Sangon Biotech Co., Ltd. (Shanghai, China)
Kd [1]: 11.5 µM | koff [1]: 0.008 s⁻¹ | kon [1]: 690 M⁻¹ s⁻¹

B4: WT Aβ (1–10) (peptide)
peptide: DAEFRHDSGY
notes: amyloid beta residues 1-10, all L; also called Aβ N-terminal fragment; source: bought: Sangon Biotech Co., Ltd. (Shanghai, China)
binding result [2]: binds

B6: YGGFL (peptide)
peptide: YGGFL
notes: YGGFL, used as a known model of isotropic growth
binding result [3]: binds

The next lines start with results.

Kd [1]: 118 µM | koff [1]: 0.114 s⁻¹ | kon [1]: 1160 M⁻¹ s⁻¹
B2: dS Aβ (17–36) (peptide)
peptide: LVFFAEDVG[dS]NKGAIIGLMV
notes: amyloid beta residues 17-36 with D-isomerized Ser; also called single D-isomerized Aβ (17–36); source: bought: Sangon Biotech Co., Ltd. (Shanghai, China)

Kd [1]: 149 µM | koff [1]: 0.132 s⁻¹ | kon [1]: 990 M⁻¹ s⁻¹
B3: dD Aβ (17–36) (peptide)
peptide: LVFFAE[dD]VGSNKGAIIGLMV
notes: amyloid beta residues 17-36 with D-isomerized Asp; also called single D-isomerized Aβ (17–36); source: bought: Sangon Biotech Co., Ltd. (Shanghai, China)

Kd [1]: 83.1 µM | koff [1]: 0.102 s⁻¹ | kon [1]: 1930 M⁻¹ s⁻¹
B5: dDdS Aβ (17–36) (peptide)
peptide: LVFFAE[dD]VG[dS]NKGAIIGLMV
notes: amyloid beta residues 17-36 with D-isomerized Asp and Ser; also called co-isomerized Aβ (17–36); source: bought: Sangon Biotech Co., Ltd. (Shanghai, China)

binding result [4]: binds | binding result [5]: binds
B7: WT Aβ (1–16) (peptide)
peptide: DAEFRHDSGYEVHHQK
notes: amyloid beta residues 1-16, all L; also called wild type Aβ (1–16); source: bought: Sangon Biotech Co., Ltd. (Shanghai, China)
binding result [6]: binds
